Non-standard residues stand in square brackets, D forms with d. No end group written: not given here. pY = N[C@@H](Cc1ccc(OP(=O)(O)O)cc1)C(=O)O; Rhodamine = not defined here; rhodamine = not defined here
Tests used:
Details in all cases: both partners purified
PTK6 SH2 domain [1] = molecular target: T1, PTK6 SH2 domain (human, UniProt Q13882 78-170); test: fluorescence polarisation; competition; fluorescent peptide 10 nM, protein at four times the calculated KD, unlabeled competitor peptide at 11 serial 1:3 dilutions; at least 20 minutes; IC50 from a four-parameter log-logistic fit, one-site competition model
T1 construct: PTK6, human; SH2 domain; source: bacterial expression culture, purified
T1 sequence (Q13882 78-170): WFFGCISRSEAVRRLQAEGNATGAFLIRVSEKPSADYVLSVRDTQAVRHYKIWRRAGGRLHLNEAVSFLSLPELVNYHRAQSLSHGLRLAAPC

PTK6 SH2 domain [2] = molecular target: T1, PTK6 SH2 domain; test: fluorescence polarisation; saturation binding in solution; rhodamine-labeled peptide fixed at 10 nM, protein titrated 0.002-10 µM (twelve two-fold dilutions); 20 minutes at room temperature in the dark; assay buffer 20 mM HEPES, 100 mM KCl, 0.1% Tween-20, 5 mM DTT, pH 7.8; apparent KD; assay detection threshold of 20 µM
[3] = molecular target: T2, PLCG1 C-terminal SH2 domain (human); test: fluorescence polarisation; saturation binding in solution: rhodamine peptide fixed at 10 nM, protein titrated 0.002-10 uM, 20 min at room temperature; assay buffer 20 mM HEPES, 100 mM KCl, 0.1% Tween-20, 5 mM DTT, pH 7.8; apparent KD
T2 construct: PLCG1, human; source: bacterial expression, purified
T2 sequence (P19174 whole entry, looked up): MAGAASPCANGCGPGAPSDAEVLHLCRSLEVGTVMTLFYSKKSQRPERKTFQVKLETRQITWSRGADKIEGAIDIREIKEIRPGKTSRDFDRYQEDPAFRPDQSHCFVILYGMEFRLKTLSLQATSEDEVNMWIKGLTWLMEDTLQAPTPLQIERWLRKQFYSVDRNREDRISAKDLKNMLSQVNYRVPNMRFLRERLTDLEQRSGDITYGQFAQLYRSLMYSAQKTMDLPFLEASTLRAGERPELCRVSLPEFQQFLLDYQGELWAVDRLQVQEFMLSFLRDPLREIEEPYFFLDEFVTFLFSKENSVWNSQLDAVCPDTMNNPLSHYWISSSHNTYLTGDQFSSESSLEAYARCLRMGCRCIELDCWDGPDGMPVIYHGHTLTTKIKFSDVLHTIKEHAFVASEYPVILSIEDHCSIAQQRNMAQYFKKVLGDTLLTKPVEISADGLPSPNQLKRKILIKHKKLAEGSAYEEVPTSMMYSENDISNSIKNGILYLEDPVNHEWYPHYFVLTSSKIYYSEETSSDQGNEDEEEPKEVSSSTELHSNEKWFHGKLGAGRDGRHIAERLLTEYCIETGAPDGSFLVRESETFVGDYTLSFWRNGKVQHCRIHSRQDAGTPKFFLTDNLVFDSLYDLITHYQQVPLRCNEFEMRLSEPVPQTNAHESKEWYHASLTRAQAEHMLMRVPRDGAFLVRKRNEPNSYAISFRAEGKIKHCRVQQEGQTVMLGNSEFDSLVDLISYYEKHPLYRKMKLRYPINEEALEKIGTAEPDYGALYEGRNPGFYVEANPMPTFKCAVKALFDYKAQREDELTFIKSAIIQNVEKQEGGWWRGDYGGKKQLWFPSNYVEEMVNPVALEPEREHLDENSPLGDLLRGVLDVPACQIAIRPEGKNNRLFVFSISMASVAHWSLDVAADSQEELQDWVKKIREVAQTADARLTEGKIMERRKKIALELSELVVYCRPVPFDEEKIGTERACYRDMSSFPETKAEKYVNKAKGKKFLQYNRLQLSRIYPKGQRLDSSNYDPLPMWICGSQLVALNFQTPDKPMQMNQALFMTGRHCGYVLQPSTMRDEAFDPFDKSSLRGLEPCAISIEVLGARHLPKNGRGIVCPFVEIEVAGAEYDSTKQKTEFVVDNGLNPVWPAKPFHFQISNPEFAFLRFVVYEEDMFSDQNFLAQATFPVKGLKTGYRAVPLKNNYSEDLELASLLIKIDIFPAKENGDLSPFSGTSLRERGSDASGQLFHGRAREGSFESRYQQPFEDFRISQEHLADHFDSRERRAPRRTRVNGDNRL

[4] = molecular target: T3, PIK3R1 N-terminal SH2 domain (human); test: as above
T3 construct: PIK3R1, human; source: bacterial expression, purified

[5] = molecular target: T4, PIK3R3 C-terminal SH2 domain (human); test: as above
T4 construct: PIK3R3, human; source: bacterial expression, purified

[6] = molecular target: T2, PLCG1 C-terminal SH2 domain; test: SPR; Biacore 3000; 6X His SH2 proteins held on a Ni-NTA chip, dye-free peptides in solution, equilibrium
[7] = molecular target: T3, PIK3R1 N-terminal SH2 domain; test: as above
[8] = molecular target: T4, PIK3R3 C-terminal SH2 domain; test: as above
PTK6 SH2 domain [9] = molecular target: T5, PTK6 SH2 domain (human, UniProt Q13882 78-170); test: fluorescence polarisation; saturation binding in solution: rhodamine peptide fixed at 10 nM, protein titrated 0.002-10 uM, 20 min at room temperature; assay buffer 20 mM HEPES, 100 mM KCl, 0.1% Tween-20, 5 mM DTT, pH 7.8; apparent KD
T5 construct: PTK6, human; source: bacterial expression, purified
T5 sequence (Q13882 78-170): as the sequence (Q13882 78-170) above

GRB2 SH2 domain = molecular target: T6, GRB2 SH2 domain (human, UniProt P62993 60-152); test: fluorescence polarisation; competition: rhodamine peptide 10 nM, protein at four times its KD, unlabeled competitor peptide in 11 serial 1:3 dilutions; Ki from IC50, one-site model
T6 construct: GRB2, human; source: bacterial expression, purified

GRB7 SH2 domain = molecular target: T7, GRB7 SH2 domain (human, UniProt Q14451 431-527); test: as above
T7 construct: GRB7, human; source: bacterial expression, purified
T7 sequence (Q14451 431-527): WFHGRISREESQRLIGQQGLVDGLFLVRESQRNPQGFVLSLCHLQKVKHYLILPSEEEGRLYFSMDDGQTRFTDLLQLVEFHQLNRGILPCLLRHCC

T6 sequence (P62993 60-152): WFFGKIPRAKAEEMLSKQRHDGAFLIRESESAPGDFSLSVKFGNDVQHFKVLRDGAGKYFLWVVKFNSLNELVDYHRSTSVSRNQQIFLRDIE

B1: ErbB2-pY735 phosphopeptide, unlabeled competitor (peptide)
chain: FGTV[pY]KGIWIPD
IC50 (PTK6 SH2 domain [1]): 148000 nM

B2: ErbB2-pY735 phosphopeptide, rhodamine-labelled (peptide)
chain: Rhodamine-FGTV[pY]KGIWIPD
modifications: reading uncertain
Kd (PTK6 SH2 domain [2]): ≥ 20000 nM

B3: Gab1 pY183 phosphopeptide, rhodamine-labelled (peptide)
chain: Rhodamine-DPQD[pY]LLLINCQD
modifications: reading uncertain
Kd [3]: 2040 nM
Kd [4]: 4260 nM
Kd [5]: 3790 nM

B4: Gab1 pY183 phosphopeptide, dye-free (peptide)
chain: DPQD[pY]LLLINCQD
Kd [6]: 146 nM
Kd [7]: 722 nM
Kd [8]: 137 nM

B5: Gab1 pY472 phosphopeptide, rhodamine-labelled (peptide)
chain: Rhodamine-QEAN[pY]VPMTPGTD
modifications: reading uncertain
Kd [4]: 2330 nM
Kd [5]: 255 nM

B6: Gab1 pY472 phosphopeptide, dye-free (peptide)
chain: QEAN[pY]VPMTPGTD
Kd [7]: 251 nM
Kd [8]: 18 nM

B7: KIT pY570 phosphopeptide, rhodamine-labelled (peptide)
chain: Rhodamine-NNYV[pY]IDPTQLPD
modifications: reading uncertain
Kd [3]: 3830 nM

B8: KIT pY570 phosphopeptide, dye-free (peptide)
chain: NNYV[pY]IDPTQLPD
Kd [6]: 1360 nM

B9: KIT pY936 phosphopeptide, dye-free (peptide)
chain: TNHI[pY]SNLANCS
Kd [8]: 4 nM

B10: MET pY1093 phosphopeptide, rhodamine-labelled (peptide)
chain: rhodamine-FGCV[pY]HGTLLDND
modifications: reading uncertain
Kd [5]: 2560 nM

B11: MET pY1093 phosphopeptide, dye-free (peptide)
chain: FGCV[pY]HGTLLDN
Kd [8]: 3550 nM

B12: ErbB3pY1289 phosphopeptide, rhodamine-labelled (peptide)
peptide: rhodamine-SEQG[pY]EEMRAFQD
modifications: reading uncertain
notes: human ErbB3 around Tyr1289; also called labeled peptide 7; source: synthetic peptide
Kd (PTK6 SH2 domain [9]): 2110 nM

B13: ErbB2pY1139 phosphopeptide, unlabeled competitor (peptide)
peptide: PQPE[pY]VNQPDVRD
notes: human ErbB2 around Tyr1139; source: synthetic peptide
Ki (GRB2 SH2 domain): 1710 nM

B14: ErbB4pY1208 phosphopeptide, unlabeled competitor (peptide)
peptide: NEPL[pY]LNTFANTD
notes: human ErbB4 around Tyr1208; source: synthetic peptide
Ki (GRB2 SH2 domain): 6850 nM

B15: ErbB3pY1197 phosphopeptide, unlabeled competitor (peptide)
peptide: EDEE[pY]EYMNRRRD
notes: human ErbB3 around Tyr1197; source: synthetic peptide
Ki (GRB7 SH2 domain): 113 nM

B16: ErbB3pY1260 phosphopeptide, unlabeled competitor (peptide)
peptide: PDED[pY]EYMNRQRD
notes: human ErbB3 around Tyr1260; source: synthetic peptide
Ki (GRB7 SH2 domain): 131 nM

Source: article PMC3433420, “Comprehensive Binary Interaction Mapping of SH2 Domains via Fluorescence Polarization Reveals Novel Functional Diversification of ErbB Receptors” (PLoS ONE, 2012)
